Measured values taken from article PMC5001721, “Reconstitution of Protein Translation of Mycobacterium Reveals Functional Conservation and Divergence with the Gram-Negative Bacterium Escherichia coli” (PLoS ONE, 2016).

Molecular target: T1, M. tuberculosis elongation factor Ts (EF-Ts) with an N-terminal 6xHis-tag and linker (M. tuberculosis, UniProt P9WNM1 1-271)
T1 sequence: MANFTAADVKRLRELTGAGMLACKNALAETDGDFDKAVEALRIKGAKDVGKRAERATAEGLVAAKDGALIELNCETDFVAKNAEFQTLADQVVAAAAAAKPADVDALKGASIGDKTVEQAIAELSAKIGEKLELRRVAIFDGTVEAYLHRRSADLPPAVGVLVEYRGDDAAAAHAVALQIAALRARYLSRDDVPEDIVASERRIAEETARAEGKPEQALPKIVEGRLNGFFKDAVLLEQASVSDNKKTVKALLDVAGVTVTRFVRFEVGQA
Experiment: affinity purification with mass spectrometry
Details: partners not purified

B1: M. tuberculosis elongation factor Tu (EF-Tu) (natural protein)
chain: not shown
- stoichiometry N: 1
